Among the data in US20060171955A1 are Percent Inhibition values, retold here.

In test [1] the target is monoclonal antibody 1129. Briefly: competitive ELISA; soluble 248/404 F inhibits 1129 binding to plate-adsorbed 248/404 F. (An ELISA detects its analyte on a solid surface through an enzyme-linked reagent.)
Test [2] has as its target monoclonal antibody 1129. Kind of test: competitive ELISA; soluble 248/404 F inhibits 1129 binding to plate-adsorbed A2 F.
Test [3] deals with monoclonal antibody 1129. Briefly: competitive ELISA; soluble A2 F inhibits 1129 binding to plate-adsorbed A2 F.
Test [4] addresses monoclonal antibody 1129. Briefly: competitive ELISA; soluble A2 F inhibits 1129 binding to plate-adsorbed 248/404 F.

A value given as a limit tells only on which side of the number the result lay.

With “purified RSV fusion (F) protein from the cold-passaged, temperature-sensitive mutant A2 strain cpts-248/404 (PFP-3) (from UniProt P03420 26-574)”, the Percent Inhibition in test [1] is 95.9%; in test [2], 94.7%.

In the case of “purified RSV fusion (F) protein from the parent A2 strain (PFP-2) (from UniProt P03420 26-574)”, the Percent Inhibition in test [3] and in test [4] was > 99% each time.
